Our source for the IC50 (pM), inhibition of IL-1β induced IL-8 production in human whole blood values is US20110189172A1.

This assay deals with IL-1 receptor (human) (UniProt P14778). The assay can be described thus: cell-based or functional assay.
Sequence of UniProt P14778 (P14778 18-569): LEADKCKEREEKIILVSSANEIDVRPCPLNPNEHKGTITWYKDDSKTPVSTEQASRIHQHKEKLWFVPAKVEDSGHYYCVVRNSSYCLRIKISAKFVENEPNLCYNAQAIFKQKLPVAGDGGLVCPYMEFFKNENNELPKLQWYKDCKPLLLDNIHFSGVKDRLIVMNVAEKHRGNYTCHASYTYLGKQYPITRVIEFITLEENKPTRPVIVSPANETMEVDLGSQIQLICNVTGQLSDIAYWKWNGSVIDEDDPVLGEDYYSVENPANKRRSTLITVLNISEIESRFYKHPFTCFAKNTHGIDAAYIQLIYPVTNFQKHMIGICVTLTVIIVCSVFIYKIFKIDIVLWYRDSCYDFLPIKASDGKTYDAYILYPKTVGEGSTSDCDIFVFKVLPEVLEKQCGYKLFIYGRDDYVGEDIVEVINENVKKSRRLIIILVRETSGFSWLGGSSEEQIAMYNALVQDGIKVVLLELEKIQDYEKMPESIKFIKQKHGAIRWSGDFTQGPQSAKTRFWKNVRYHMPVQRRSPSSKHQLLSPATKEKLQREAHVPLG

Consider “Kineret® (anakinra), recombinant IL-1 receptor antagonist (IL-1Ra) (from UniProt P18510 26-177) (ligand)”, for which the IC50 (pM), inhibition of IL-1β induced IL-8 production in human whole blood was determined as 53.4 pM.
